Patent CN110172090A

B1: 抗人OX40单克隆抗体 (杂交瘤OX401M) (antibody, part only; not given: constant regions, V domains shown, part only)
VH: QVQLAQPGAELVRPGASVKQYCKASGYSGSSYTIHWVKQTPSRGLEWIGAIYPGNGDTSWNQKFKGKATITADKSSSTAYMRLSSLTSEDSAISYCARSTYYYGAYYFDYWGQGSTL

Assays:
[1] = biological target: OX40 (Kd检测ELISA法的抗原) (human) (UniProt P43489); assay: ELISA-based Kd method (ELASA法)
[2] = biological target: 人OX40 (膜表面过表达人OX40的293T细胞系) (human) (UniProt P43489); assay: flow cytometry on 293T cells overexpressing human OX40
[3] = biological target: 人OX40 (膜表面过表达人OX40的293T细胞系) (human) (UniProt P43489); assay: flow cytometry on 293T cells overexpressing human OX40, PE goat anti-mouse secondary

Molecule	Kd [1]	EC50 [2]	EC50 [3]
CD40 Monoclonal Antibody (HB14), PE, Catalog#CD4004, Invitrogen	9.8 nM	2.5 nM	–
B1	0.0273 nM	–	0.0125 nM
